# B1: KB-AT-001/003 (bispecific antibody)
# chain: QVQLQESGGGLVQAGGSLRLSCAASGRTFRNYVMGWFRQAPGKDPEFIAGINRSGAITYYGDSVKGRFTISRDNAKNTVSLQMNSLEPEDTAVYYCAAGETTWSIRRDDYDYWGQGTQVTVSSGGGSGGGSGGGSGGGSQVQLQESGGGLVQPGGSLRLSCAASALTFSSRAWAWYRQAPGKQRELVASITGGGTTNYADSVKGRFTISRDNAKNTVYLQMNSLKPEDTAVHYCNGYRYTYAWGQGTQVTQVTVSS
# B2: KB-AT-002/003 (bispecific antibody)
# chain: QVQLQESGGGLVQAGGSLRLSCAASGRTFNNNGMGWFRQAPGKEREFVAAISWSGGSTYYADSVKGRYIMSRDNAKNTVYLQMNSLKPEDTAVYYCAARTRYNSGLFSRNYDYWGQGTQVTVSSGGGSGGGSGGGSGGGSQVQLQESGGGLVQPGGSLRLSCAASALTFSSRAWAWYRQAPGKQRELVASITGGGTTNYADSVKGRFTISRDNAKNTVYLQMNSLKPEDTAVHYCNGYRYTYAWGQGTQVTVSS
# B3: KB-AT-001/005 (other)
# chain: QVQLQESGGGLVQAGGSLRLSCAASGRTFRNYVMGWFRQAPGKDPEFIAGINRSGAITYYGDSVKGRFTISRDNAKNTVSLQMNSLEPEDTAVYYCAAGETTWSIRRDDYDYWGQGTQVTVSSGGGSGGGSGGGSGGGSEVQLVESGGGLVQPGGSLRLSCEASGRDFNDAALGWSRQVPGKARETVAMITSGGVRNYAETVKDRFTISRDNAKNTVYLDMNNLQPDDTGVYYCKADSFKGDYDTSWYLYWGQGTQVTVSS
# B4: KB-AT-001/002 (bispecific antibody)
# chain: QVQLQESGGGLVQAGGSLRLSCAASGRTFRNYVMGWFRQAPGKDPEFIAGINRSGAITYYGDSVKGRFTISRDNAKNTVSLQMNSLEPEDTAVYYCAAGETTWSIRRDDYDYWGQGTQVTVSSGGGSGGGSGGGSGGGSQVQLVQSGGGLVQAGGSLRLSCAASGRTFNNNGMGWFRQAPGKEREFVAAISWSGGSTYYADSVKGRYIMSRDNAKNTVYLQMNSLKPEDTAVYYCAARTRYNSGLFSRNYDYWGQGTQVTVSS
# B5: KB-AT-112 (bispecific antibody)
# chain: QVQLQESGGGLVQAGGSLRLSCAASGRTFRNYVMGWFRQAPGKDPEFIAGINRSGAITYYGDSVKGRFTISRDNAKNTVSLQMNSLEPEDTAVYYCAAGETTWSIRRDDYDYWGQGTQVTVSSGGGSGGGSGGGSGGGSQVQLQESGGGLVQAGGSLRLSCAASGRTFRNYVMGWFRQAPGKDPEFIAGINRSGAITYYGDSVKGRFTISRDNAKNTVSLQMNSLEPEDTAVYYCAAGETTWSIRRDDYDYWGQGTQVTVSSGGGSGGGSGGGSGGGSQVQLVQSGGGLVQAGGSLRLSCAASGRTFNNNGMGWFRQAPGKEREFVAAISWSGGSTYYADSVKGRYIMSRDNAKNTVYLQMNSLKPEDTAVYYCAARTRYNSGLFSRNYDYWGQGTQVTVSS
# B6: KB-AT-113 (bispecific antibody)
# chain: QVQLQESGGGLVQAGGSLRLSCAASGRTFRNYVMGWFRQAPGKDPEFIAGINRSGAITYYGDSVKGRFTISRDNAKNTVSLQMNSLEPEDTAVYYCAAGETTWSIRRDDYDYWGQGTQVTVSSGGGSGGGSGGGSGGGSQVQLQESGGGLVQAGGSLRLSCAASGRTFRNYVMGWFRQAPGKDPEFIAGINRSGAITYYGDSVKGRFTISRDNAKNTVSLQMNSLEPEDTAVYYCAAGETTWSIRRDDYDYWGQGTQVTVSSGGGSGGGSGGGSGGGSQVQLQESGGGLVQPGGSLRLSCAASALTFSSRAWAWYRQAPGKQRELVASITGGGTTNYADSVKGRFTISRDNAKNTVYLQMNSLKPEDTAVHYCNGYRYTYAWGQGTQVTQVTVSS
# B7: KB-AT-115 (other)
# chain: QVQLQESGGGLVQAGGSLRLSCAASGRTFRNYVMGWFRQAPGKDPEFIAGINRSGAITYYGDSVKGRFTISRDNAKNTVSLQMNSLEPEDTAVYYCAAGETTWSIRRDDYDYWGQGTQVTVSSGGGSGGGSGGGSGGGSQVQLQESGGGLVQAGGSLRLSCAASGRTFRNYVMGWFRQAPGKDPEFIAGINRSGAITYYGDSVKGRFTISRDNAKNTVSLQMNSLEPEDTAVYYCAAGETTWSIRRDDYDYWGQGTQVTVSSGGGSGGGSGGGSGGGSEVQLVESGGGLVQPGGSLRLSCEASGRDFNDAALGWSRQVPGKARETVAMITSGGVRNYAETVKDRFTISRDNAKNTVYLDMNNLQPDDTGVYYCKADSFKGDYDTSWYLYWGQGTQVTVSS
# B8: KB-AT-1123 (bispecific antibody)
# chain: QVQLQESGGGLVQAGGSLRLSCAASGRTFRNYVMGWFRQAPGKDPEFIAGINRSGAITYYGDSVKGRFTISRDNAKNTVSLQMNSLEPEDTAVYYCAAGETTWSIRRDDYDYWGQGTQVTVSSGGGSGGGSGGGSGGGSQVQLQESGGGLVQAGGSLRLSCAASGRTFRNYVMGWFRQAPGKDPEFIAGINRSGAITYYGDSVKGRFTISRDNAKNTVSLQMNSLEPEDTAVYYCAAGETTWSIRRDDYDYWGQGTQVTVSSGGGSGGGSGGGSGGGSQVQLVQSGGGLVQAGGSLRLSCAASGRTFNNNGMGWFRQAPGKEREFVAAISWSGGSTYYADSVKGRYIMSRDNAKNTVYLQMNSLKPEDTAVYYCAARTRYNSGLFSRNYDYWGQGTQVTVSSGGGSGGGSGGGSGGGSQVQLQESGGGLVQPGGSLRLSCAASALTFSSRAWAWYRQAPGKQRELVASITGGGTTNYADSVKGRFTISRDNAKNTVYLQMNSLKPEDTAVHYCNGYRYTYAWGQGTQVTQVTVSS
# Target: T1, human antithrombin (human, UniProt P01008 33-464)
# Test: cell-based or functional assay
# Note: test concentration or dose not given here.
# T1 sequence (P01008 33-464 limits assumed): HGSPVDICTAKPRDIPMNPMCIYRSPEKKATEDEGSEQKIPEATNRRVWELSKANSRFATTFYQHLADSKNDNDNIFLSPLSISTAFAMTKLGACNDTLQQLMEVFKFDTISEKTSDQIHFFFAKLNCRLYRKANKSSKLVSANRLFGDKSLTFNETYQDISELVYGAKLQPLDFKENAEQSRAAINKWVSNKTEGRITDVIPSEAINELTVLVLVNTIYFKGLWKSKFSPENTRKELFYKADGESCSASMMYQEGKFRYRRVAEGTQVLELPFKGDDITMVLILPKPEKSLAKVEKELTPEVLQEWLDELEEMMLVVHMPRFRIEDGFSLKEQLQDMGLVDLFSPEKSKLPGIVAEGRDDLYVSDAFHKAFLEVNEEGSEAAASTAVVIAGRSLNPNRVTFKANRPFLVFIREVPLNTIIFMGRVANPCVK
row,Binder,"% antithrombin neutralization (thrombin amidolytic activity on S-2238, with unfractionated heparin) [%]"
1,B1,56
2,B2,47
3,B3,28
4,B4,30

# Target: T1, human antithrombin
# Test: cell-based or functional assay
# Remark: another data set of the same source
row,Binder,"% antithrombin neutralization (factor Xa amidolytic activity on S-2765, with LMW-heparin) [%]"
1,B1,62
2,B2,68
3,B3,34
4,B4,57

# Target: T1, human antithrombin
# Test: cell-based or functional assay
# Remark: another data set of the same source
row,Binder,"% antithrombin neutralization (thrombin amidolytic activity on S-2238, with unfractionated heparin) [%]"
1,B5,29
2,B6,97
3,B7,26
4,B8,99
